The results in this text go back to patent US20190263905A1 (DINONA, published 2019).

Assay [1] has as its target T1, Antigen CD66c (CEACAM6; Sino Biological, Inc.) (UniProt P40199 35-320).
T1 construct: Bought antigen coated on the ELISA plate; construct not described; also called CD66c antigen; CECACAM6
T1 sequence (looked up): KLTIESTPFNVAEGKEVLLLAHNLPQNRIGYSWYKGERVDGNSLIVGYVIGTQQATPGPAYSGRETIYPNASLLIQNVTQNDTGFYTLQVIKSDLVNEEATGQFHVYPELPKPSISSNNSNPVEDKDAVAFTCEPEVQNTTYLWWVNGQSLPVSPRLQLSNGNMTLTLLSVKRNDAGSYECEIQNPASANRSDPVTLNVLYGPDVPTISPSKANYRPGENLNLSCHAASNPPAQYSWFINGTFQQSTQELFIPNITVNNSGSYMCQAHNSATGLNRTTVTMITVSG
Kind of assay: ELISA, coated CEACAM6 100 ng/well, antibody 0.17 ng/ml. The procedure:
(§1) Antigen CD66c (CEACAM6; Sino Biological, Inc.) and CEACAM1 antigen (Sino Biological, Inc.) were coated on a 96-well plate at 100 ng per well and then blocked. The primary antibody was diluted serially three fold from 10 ug/ml at initial concentration and was bound at 37° C. for 1 hour, and goat anti-Human Ig-HRP conjugate (Jackson ImmunoResearch) as a secondary antibody was diluted 1:10,000 and incubated at 37° C. for 30 minutes. The washing was carried out at three times between each step, and the TMB reaction was performed, stopped with 1N H₂SO₄ solution at the same amount of TMB solution (100 ul) and then OD value was measured at 450 nm.
(§2) As a result of the experiment, the binding affinities to CD66c antigen of the five kinds of recombinant humanized antibodies selected from among 96 kinds of recombinant humanized antibodies are shown in FIG. 4a, Table 12, FIG. 4b and Table 13. FIG. 4a and Table 12 show the binding capacity of the antibodies to CECACAM6 CD66c) antigen, and FIG. 4b and Table 13 are the results for the CEACAM1 (CD66a) antigen.

Assay [2] deals with T1, Antigen CD66c (CEACAM6; Sino …). Kind of assay: ELISA, coated CEACAM6 100 ng/well, antibody 1.52 ng/ml. As to the method: as §1, §2
The target is the same in assay [3]. Kind of assay: ELISA, coated CEACAM6 100 ng/well, antibody 4.57 ng/ml. As to the method:
as §1, §2

Assay [4] concerns the target T2, CEACAM1 antigen (Sino Biological, Inc.) (UniProt P13688 35-428).
T2 construct: Bought antigen coated on the ELISA plate; construct not described; also called CEACAM1 (CD66a) antigen; CD66a
T2 sequence (looked up): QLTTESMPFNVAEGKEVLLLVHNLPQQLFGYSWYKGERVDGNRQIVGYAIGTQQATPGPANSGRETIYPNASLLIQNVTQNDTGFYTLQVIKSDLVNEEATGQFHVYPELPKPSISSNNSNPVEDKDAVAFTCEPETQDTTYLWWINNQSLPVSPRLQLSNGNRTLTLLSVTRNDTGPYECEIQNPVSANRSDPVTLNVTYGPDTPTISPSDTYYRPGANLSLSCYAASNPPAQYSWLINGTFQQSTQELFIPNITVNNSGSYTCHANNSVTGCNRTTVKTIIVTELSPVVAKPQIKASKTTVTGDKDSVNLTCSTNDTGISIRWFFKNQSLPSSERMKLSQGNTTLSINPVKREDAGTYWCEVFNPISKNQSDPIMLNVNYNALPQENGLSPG
Kind of assay: ELISA, coated CEACAM1 100 ng/well, antibody 0.51 ng/ml. As to the method: as §1, §2

The target in assay [5] is T1, Antigen CD66c (CEACAM6; Sino …). Kind of assay: ELISA, coated CEACAM6 100 ng/well, antibody 13.72 ng/ml. The procedure: as §1, §2
The target is the same in assay [6]. Kind of assay: ELISA, coated CEACAM6 100 ng/well, antibody 123.46 ng/ml. As to the method: as §1, §2
Assay [7] addresses T2, CEACAM1 antigen (Sino Biological, Inc.). Kind of assay: ELISA, coated CEACAM1 100 ng/well, antibody 123.46 ng/ml. The procedure: as §1, §2
Assay [8] concerns the target T1, Antigen CD66c (CEACAM6; Sino …). Kind of assay: ELISA, coated CEACAM6 100 ng/well, antibody 1111.11 ng/ml. As to the method: as §1, §2
The target is the same in assay [9]. Kind of assay: ELISA, coated CEACAM6 100 ng/well, antibody 3333.33 ng/ml. As to the method: as §1, §2
For assay [10] the target is unchanged. Kind of assay: ELISA, coated CEACAM6 100 ng/well, antibody 10000.00 ng/ml. As to the method: as §1, §2
The target of assay [11] is T3, CD66c (CEACAM6) on CD66c-positive A549 non-small-cell lung cancer cells (UniProt P40199 35-320, limits assumed).
T3 construct: whole, on cells; also called CD66c antigen; NCA-90
T3 sequence (looked up): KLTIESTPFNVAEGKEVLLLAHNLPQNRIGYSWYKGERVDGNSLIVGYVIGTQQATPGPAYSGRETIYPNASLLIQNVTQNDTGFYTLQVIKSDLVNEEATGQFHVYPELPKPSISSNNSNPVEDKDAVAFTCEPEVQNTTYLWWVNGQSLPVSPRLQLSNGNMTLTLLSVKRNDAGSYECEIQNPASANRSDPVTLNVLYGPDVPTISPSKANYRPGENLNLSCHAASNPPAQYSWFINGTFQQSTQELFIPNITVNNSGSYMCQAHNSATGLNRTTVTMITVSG
Kind of assay: flow cytometry on A549 cells, relative to chimeric antibody. The procedure:
Each expressed 96 recombinant humanized antibody was poured and reacted in a test tube containing the same amount ([…]) of CD66c-positive A549 non-small-cell lung cancer cell line at 4° C. for 30 minutes, washed with PBS, and treated with FITC-conjugated goat anti-Human IgG (DiNona Inc, Korea) was added and incubated at 4° C. for 15 minutes. After washing with PBS, the cells were analyzed with a flow cytometer (Stratedigm, S1000EXi) and the results are shown below.
Among the 96 recombinant humanized antibody candidates, eight were firstly selected based on the degree of expression, the presence of aggregation, and the degree of cell binding (Table 9 and Table 10, FIGS. 3A to 3E).

B1: anti-CD66c chimeric antibody 8F5 (antibody, human IgG1, V domains shown)
VH: EVQLQQSGPELVKPGASMKISCKASGYSFTDYTMNWVKQSHGKNLEWIGLINPFHGGTVSNQRFKVKATLTVDVSSNTAYMELLSLTSDDSAVYYCVRGDPVRHYYALAYWGQGTSVTVSS
VL: DIQMTQSPASLSASVGETVTITCGASENVYGTLNWYQRKQGKSPQLLIYGATNLADGMSSRFSGSGSGRQYSLKISSLHPDDVATYYCQNVLSAPYTFGGGTKLEII
notes: also called chimeric 8F5 antibody; chi 8F5
As to B1, the “OD 450 nm” value in assay [1] was found to be 0.4 OD; in assay [2], 0.53 OD; in assay [3], 0.8 OD; in assay [4], 0.1 OD; in [5] it was 1.15 OD; in assay [6], 2.83 OD. For the same molecule, the “OD 450 nm” value in assay [7] was found to be 0.95 OD; in [8], 3.3 OD; in [9], 3.41 OD; in assay [10], 3.17 OD. The “% (% gated × mean)” value in assay [11] is 100%.

B2: recombinant humanized anti-CD66c antibody Protein ID 3058 (Vk8 + VH11) (antibody, human IgG1, V domains shown)
VH: QVQLVQSGAEVKKPGASVKISCKASGYSFTDYTMHWVKQAPGQNLEWIGLINPFGGSTSYAQKFKGRVTMTRDTSTNTAYMELSRLRSDDTAVYYCVRGDPVRHYYALAYWGQGTLVTVSS
VL: DIQMTQSPSTLSASVGDRVTITCRASENVYGTLNWYQRKPGKAPKLLIYGATNLADGMPSRFSGSGSGTEYTLTISSLQPDDFATYYCQNVLSAPYTFGGGTKLEIK
notes: also called hu 3058; #86
Consider B2, for which the “OD 450 nm” value came out at 0.37 OD in [1]; 0.53 OD in assay [2]; 0.74 OD in [3]; 0.04 OD in assay [4]; 1.06 OD in assay [5]; 2.22 OD in assay [6]. The “OD 450 nm” value was 0.07 OD in assay [7], 3.19 OD in assay [8], 3.18 OD in [9] and 2.87 OD in assay [10]. Further, the “% (% gated × mean)” value in [11] amounted to 103%.

B3: recombinant humanized anti-CD66c antibody Protein ID 3007 (Vk7 + VH6) (antibody, human IgG1, V domains shown)
VH: QVQLVQSGAEVKKPGASMKISCKASGYSFTDYTMNWVKQAPGQNLEWIGLINPFHGGTVSNQRFKVKATLTVDVSTNTAYMELSRLRSDDTAVYYCVRGDPVRHYYALAYWGQGTLVTVSS
VL: DIQMTQSPSTLSASVGDRVTITCGASENVYGTLNWYQRKPGKAPKLLIYGATNLADGVPSRFSGSGSGTEYTLTISSLQPDDFATYYCQNVLSAPYTFGGGTKLEIK
notes: also called hu 3007; #43
As for B3, the “OD 450 nm” value in assay [1] came to 0.53 OD; in assay [2], 0.79 OD; in assay [3], 1.02 OD; in assay [4], 0.11 OD; in [5] it was 1.64 OD; in assay [6], 2.9 OD. In addition, the “OD 450 nm” value worked out at 0.82 OD in assay [7], 3.23 OD in assay [8], 3.24 OD in [9] and 3.37 OD in assay [10]. In addition, in assay [11], the “% (% gated × mean)” value is 88.8%.

B4: recombinant humanized anti-CD66c antibody Protein ID 3043 (Vk8 + VH6) (antibody, human IgG1, V domains shown)
VH: QVQLVQSGAEVKKPGASMKISCKASGYSFTDYTMNWVKQAPGQNLEWIGLINPFHGGTVSNQRFKVKATLTVDVSTNTAYMELSRLRSDDTAVYYCVRGDPVRHYYALAYWGQGTLVTVSS
VL: DIQMTQSPSTLSASVGDRVTITCRASENVYGTLNWYQRKPGKAPKLLIYGATNLADGMPSRFSGSGSGTEYTLTISSLQPDDFATYYCQNVLSAPYTFGGGTKLEIK
notes: also called hu 3043; #71
In the case of B4, the “OD 450 nm” value in [1] stood at 0.41 OD; in [2] it was 0.7 OD; in assay [3], 0.91 OD; in assay [4], 0.1 OD; in [5], 1.37 OD; in assay [6] it was 2.29 OD. The “OD 450 nm” value came to 0.7 OD in assay [7], 2.74 OD in [8], 2.95 OD in assay [9] and 2.73 OD in assay [10]. The “% (% gated × mean)” value in assay [11] is 105%.

B5: recombinant humanized anti-CD66c antibody Protein ID 2938 (Vk5 + VH7) (antibody, human IgG1, V domains shown)
VH: QVQLVQSGAEVKKPGASMKISCKASGYSFTDYTMNWVRQAPGQGLEWIGLINPFHGGTVSNQRFKVKATLTVDVSTNTAYMELSRLRSDDTAVYYCVRGDPVRHYYALAYWGQGTLVTVSS
VL: DIQMTQSPSTLSASVGDRVTITCGASENVYGTLAWYQRKPGKAPKLLIYGATNLADGVPSRFSGSGSGREYTLTISSLQPDDFATYYCQNVLSAPYTFGGGTKLEIK
notes: also called hu 2938
Consider B5, for which the “OD 450 nm” value in assay [1] was found to be 0.3 OD; in [2], 0.48 OD; in [3], 0.65 OD; in assay [4] it was 0.05 OD; in assay [5], 1.15 OD; in assay [6], 2.56 OD. Besides, the “OD 450 nm” value in assay [7] was found to be 0.1 OD; in [8] it was 3.16 OD; in assay [9], 3.27 OD; in assay [10], 3.43 OD. In [11], the “% (% gated × mean)” value was 96%.
